Assays:
[1] = target: MDM2_(D.rerio) SWIB domain (zebra fish (Danio rerio)); test: stopped-flow spectroscopy
[2] = target: MDM2_(L.camtschaticum) SWIB domain (arctic lamprey (Lethenteron camtschaticum)); test: fluorescence polarisation
[3] = target: MDM2_(M.trossulus) SWIB domain (bay mussel (Mytilus trossulus)); test: fluorescence polarisation

Row | Kd [1] | Substance | further results
1 | 1.9 µM | p53TAD_(D.rerio)[14–27] (peptide) | –
2 | 0.34 µM | p53TAD_(D.rerio)^N26L (peptide) | –

Further lines, the substance ahead of its results:

Row | Substance | Kd [1] | further results
3 | p53TAD_(D.rerio)^insertT[18] (peptide) | 2.3 µM | –
4 | p53TAD_(L.camtschaticum) (peptide) | – | Kd [2]: 250 µM
5 | p53TAD_(M.trossulus) (peptide) | – | Kd [3]: 15 µM
6 | p73TAD_(D.rerio) (peptide) | 0.12 µM | –

Reference: paper doi:10.1101/2023.01.26.525693
